Data: the DeepSol protein solubility set

assay: soluble on expression in E. coli; label from the status in PepcDB or PDB records

Row | Sequence | soluble on expression in E. coli
1 | MAVEAVWESARILANSRFAVAFTGAGISAESGIPTFRGKDGLWSRFDPRDLATPEAFNRDPRLVWEWYSWRIERVLAAKPNKAHRLLARLEDSGVLKAVITQNVDGLHRRAGSRRVLELHGNVLRARCTRCGSKLEWREKPSNLPPSCPRCGGVLRPDVVWFGEPLDTSLLEEAFGLARRSDVMIIIGTSGAVDPAGLLPLAAKESGATLINVNPEPNRYSGVADIELRMRAVEFAERLSRAMGIDI | soluble
2 | MIYVTFTPYGAFGVKDNKEVSGLEDIEYKKLFNEEEIPDIMFKLKTQPNKIADELKEEWGDEIKLETLSTEPFNIGEFLRNNLFKVGKELGYFNNYDEFRKKMHYWSTELTKKVIKSYAQQKDKIIIQVAEAISDLDKTLNLLSERLREWYSLYFPELDHLVNKHEVYANLITKLGKRKNFTKSQLKKILPSKLAGKIAEAAKNSMGGELEDYDLDVIVKFAEEINHLYEKRKELYNYLEKLMNEEAPNITKLAGVSLGARLIGLAGGLEKLAKMPASTIQVLGAEKALFAHLRMGVEPPKHGIIYNHPLIQGSPHWQRGKIARALACKLAIAARADYVGDYIADELLEKLNKRVEEIRRKYPKPPKKKKKEKPKAKKKEKKGKKEKSKKKKDKKKDKKGKKERKVIGKTKSRKLEHHHHHH | soluble
3 | MRLVEIGRFGAPYALKGGLRFRGEPVVLHLERVYVEGHGWRAIEDLYRVGEELVVHLAGVTDRTLAEALVGLRVYAEVADLPPLEEGRYYYFALIGLPVYVEGRQVGEVVDILDAGAQDVLIIRGVGERLRDRAERLVPLQAPYVRVEEGGIHVDPIPGLFDLEHHHHHH | not soluble
4 | MQNDNAKPISISKQLVYDAFLRVKANRGSAGIDKVTLEDYEKNLRGNLYKLWNRMSSGSYFPPSVKLVEIPKSTGGKRPLGIPTVSDRVAQMAVVMLITPSIEPCFHEDSYAYRPHRSAHDAVGKARERCWKYAWVLDMDISKFFDTIDHELLLKALKRHTQEKWVLMYIERWLKVPYEKSDGSQVDRALGVPQGSVIGPVLANLFLHYTFDKWMEKNFPRVPFERYADDTICHCHSLKQAEYMQAMIQQRFECCRLRLNEEKTKIVYCKSSRQKECYPNVTFDFLGFTFQPRESVDKYGNRFTGFLPAISRKSMKRINETMRSWHLNRHSNLTLEHLASDINPIVRGWMTYYGKFYPTRLKWFMQTLNGRLARWVMCKFERYRHRFYPAQEWLARIAEKEGLIFYHWKCGALPRFTNKEKVSSQLIMVK | soluble
5 | MHHHHHHENLYFQSNAMAKSRLLLSELLDQLSFALCIVRNDYVIVKVNEYFESRVIFDGETMQGKNILELFPESADYLKRKIDTALVIESSSFSSWEQKPHLLPFKSSRPVSGEEEQMYQNLEVIPIHSEDGTIEHVCLCVYDVTIQASQQQ | soluble
6 | MKFNCPLIVVNDINISRKFYEEVLCQKIKYDFGENVVYEGDFSLQLKSHFANMIDIDEKSIKFQSNGFELYFEEDNIEAFLNKLKQNKGINYIHSLLEHPWGQRVIRFYDPDMHIIEVGESMEGVIKRFFNEGMSIDEITKRTQHPLEFVKRVLHYKLTLEHHHHHH | soluble
7 | MSQQPGVLPENMKRYMGRDAQRMNILAGRIIAETVRSTLGPKGMDKMLVDDLGDVVVTNDGVTILREMSVEHPAAKMLIEVAKTQEKEVGDGTTTAVVVAGELLRKAEELLDQNVHPTIVVKGYQAAAQKAQELLKTIACEVGAQDKEILTKIAMTSITGKGAEKAKEKLAEIIVEAVSAVVDDEGKVDKDLIKIEKKSGASIDDTELIKGVLVDKERVSAQMPKKVTDAKIALLNCAIEIKETETDAEIRITDPAKLMEFIEQEEKMLKDMVAEIKASGANVLFCQKGIDDLAQHYLAKEGIVAARRVKKSDMEKLAKATGANVITNIKDLSAQDLGDAGLVEERKISGDSMIFVEECKHPKAVTMLIRGTTEHVIEEVARAVDDAVGVVGCTIEDGRIVSGGGSTEVELSMKLREYAEGISGREQLAVRAFADALEVIPRTLAENAGLDAIEILVKVRAAHASNGNKCAGLNVFTGAVEDMCENGVVEPLRVKTQAIQSAAESTEMLLRIDDVIAAEKLRGAPDMGDMGGMPGMGGMPGMM | soluble
8 | RRFEPLLLLPIGFGGLLSNIPEAGLAMTALDHLLHYAHTEQLTIIAEKVNSSSLDVHTIKQAIAFAPPSVQNELEVIASDLGYNAG | not soluble
9 | MNFGAYGKITDVEFVSDSEGPLHFCIITFADSRSVDVLLTKSIYIRDVLMFTRRAVLKESVKIAEHKIKEQEQQNLVQLPPNHTAYLTPSRPVTSVHASSSASSNHYDPSAAAGYAPLYHQPPESDPLSQCGYGPRKW | not soluble
10 | MGSDKIHHHHHHMVQEIAQEIIRSARKKGTQDIYFVPKLDAYELHMRVGDERCKIGSYDFEKFAAVISHFKFVAGMNVGEKRRSQLGSCDYAYDHKIASLRLSTVGDYRGHESLVIRLLHDEEQDLHFWFQDIEELGKQYRQRGLYLFAGPVGSGKTTLMHELSKSLFKGQQVMSIEDPVEIKQDDMLQLQLNEAIGLTYENLIKLSLRHRPDLLIIGEIRDSETARAVVRASLTGATVFSTIHAKSIRGVYERLLELGVSEEELAVVLQGVCYQRLIGGGGIVDFASRDYQEHQAAKWNEQIDQLLKDGHITSLQAETEKISYS | not soluble
11 | MGSDKIHHHHHHLKALVVGLGSIGVRHLNNLHALEVRELGVVRSRNFPPPTEIVPKDIAVFQDIDLALSRKFDLVVVANPTSLHLETLIKALRAGSHVYVEKPVAHEKRRLSELTRYVSLDGPRVLVGCQFRMHPGLRKIEGWIRQGKLGKIHSVQVDLGEYLPGWHPWEDYRQSYAARADQGGGVVLTLIHELDYLHWLFGKPKSVFAIGGHRTSLDITAEDTALITFETEQDICVQLRMDYWRKPPVRHMNIVAENAIVDWDYPTRLTTLRQNGQVLDEMVLVPSWDRNELFLSMMKEFIEGIPRGSIPRVTLRDGIEVLKTALAVKKSLQTHRKVAL | not soluble
12 | MDDSTLRDRLEQLGLSEKEVDTYLSILSSGEATASEIADDTGVSKRYVYSISESLEDRGFVEVNDHVVPTTIRARPPEEVIDALTDRLEEMSGALDSRYSASAREPQQFDVIKSRVTVIKRLTEYIRNAEREIMLSVPQQYLPEISEELGAAVDRGVLVMLVVSSADNLRSDDASGLASVVRSWDQPMPIMLTVDAQFGLVSPAEMVTRTNSDQRAIAFVQQQLVPVLSGSFLGNYWLMATEVAVTDPAPLPATYHDFRHAVLQATLHLRADHDIHVSADVRAVQADDDTTTIEGTVVETKQGLVEPETNSYPIEHTLVVDIGDRTVSLGGSGSFLEDYETDAVTLSLAE | not soluble
13 | MIQEYQLRILPEIAASEQQLKAYLSQEKGLNQRDITALRTLKRSIDARQRTIYVNLKVRVYLNEMPKDDEYEHTIYNNVEGKPQVIVVGAGPGGLFAALRLIELGLRPVVVERGKDVRERKKDLAQISREHRVDPESNYSFGEGGAGAYSDGKLYTRSKKRGNVDKILNVFCQHGASTAILVDAHPHIGTDKLPRVIENMRNTIIECGGEVHFKTRMDALIIEQGEVKGIETNTGETFLGPVILATGHSARDVYRWLAANNVTIEAKGIAVGVRLEHPAGLIDQIQYHNRSGRGKYLPAAEYSFVTQVDGRGVYSFCMCPGGFIVPAASGPEQVVVNGMSPSNRGSRWSNSGMVVEIQPEDIINDKRLTVNNEAEETFPELAVLHFQEELERQCWLQGGRRQTAPAQRMVDFTRKKLSYDLPESSYSPGLISSPLHFWMPEFIAGRLSQGFQQFGRSSHGFLTNEAVMIGVETRTSSPVRIVRDKDTLQHITLRGLFPCGEGAGYAGGIVSAGIDGERCAEAVAQFMNPLEHHHHHH | soluble
14 | MGSDKIHHHHHHMTRSTIGGKRFEPIPARFSSIGAGLMNIKQLEVLRTLLSTGSTIATAKAMGLSQSGISRLLAQLEADLSLTLFARDKGRLIPTPEAALLARDAENVLLAVDRMSGHAEDLRNGAAGPEIVRIGLPSSMWENFAPAMLIDYVRDFPGVRIETFFETTTAINKLVGERVIDLGFLRMEGEIGPGIDVERVATGKSVCVVREDHPLADLQEITVKDLRNIPLILIGRQRPNRMALDQVFKKAGVKPMVKIETHTNSSACAYVAHGLGVTIISSFYANLYRHLPVVARPFVPQATQEFGLARASGAPLSIAAQALSNALKREIQLSQKID | not soluble
15 | MSLQIKFWPQDLKLAHTWTIASSVTSGSDVTSVGIVQLTDRDGTVGLGEAAPARRYNESTPGSLDFIAKVDATKLSFDNIEASMKYVESLASGQFAAKSAINVALLDGAARKAGKPIYDLLGLGFRNNHHVTSFSIGIDKADVIRKKVLAAEQYPVLKLKVGAADDKANLAALREAAPQKWVRVDANEGWKTKEHALEMIEWLAQDKFIQYIEQPMPADSNPKDIAWLKARSPLPLFGDESYHTAKDVDHCAECYHGVNVKLCKTGGISNAYEALQVARKAGLKTMIGCMIETSILISAAAHLAELCDYLDIDGNLLTTNDPYLGVTAEKGLLSFASAPEKLGLRVRAKEGHHHHHH | soluble
16 | QDFAELQGKWYTIVIAADNLEKIEEGGPLRFYFRHIDCYKNCSEMEITFYVITNNQCSKTTVIGYLKGNGTYETQFEGNNIFQPLYITSDKIFFTNKNMDRAGQETNMIVVAGKGNALTPEENEILVQFAHEKKIPVENILNILATDTCPE | soluble
17 | MAAERLDPWGAVEIKDYDRLLRTFGIRPFSEVLPLLRKAGMEPSFLMRRGIIFGHRDFDKILEAKARGERVAVLTGFMPSGKFHFGHKLTVDQLIYLQKNGFKVFVAIADAEAFAVRRIGREEAVRIAVEEYIANMIALGLDPKDTEFYFQTNRGTPYFRLIQLFSGKVTAAEMEAIYGELTPAKMMASLTQAADILHVQLDEYGGYRHVVVPVGADQDPHLRLTRDLADRMAGVVELERPASTYHKLQPGLDGRKMSSSRPDSTIFLTDPPEVARNKLFRALTGGRATAEEQRRLGGVPEVCSVYHMDLYHLMPDDGEVKHIYTSCRLGKILCGECKQIAWEKLERFLAEHQSRLEKAKTIAWKLVEPPRF | soluble
18 | GIDAAEYVLYGGKGGVGKTTCAAATALASARDDTATLVVSTDPAHSLSDTLDADIPATPTRIREDIPLYAAEIDPEAAVGEGPLGVEEDALGGVGELLGGDGMFGGGAGGAAGAGQAEDPIGGEEGLLGGSMPGADEAAALRLLLDYVDDDRFDRVVIDTAPTGHTLRLLELPETMDSMVGKILQLRERFSGMMDNLTGMFGDDQDVDAEAGIEDLQELSDRIEHLRGILQDPQRTDFRIVMVPEELSVVESERLLAQLGEFNIPVSTVVVNRVMQDPSEVLGEDVDIAGPNHADCEFCARRWQVQQDALARSQDMFRGHDVRRVPLFAEEVRGERLLSVVAACLD | not soluble
19 | MIRISDAAQAHFAKLLANQEEGTQIRVFVINPGTPNAECGVSYCPPDAVEATDTALKFDLLTAYVDELSAPYLEDAEIDFVTDQLGSQLTLKAPNAKMRKVADDAPLMERVEYMLQSQINPQLAGHGGRVSLMEITEDGYAILQFGGGCNGCSMVDVTLKEGIEKQLLNEFPELKGVRDLTEHQRGEHSYY | soluble
20 | GPGSMEFVAEAHGYLITGLALDSQGDLFAICSCSGELLRLNKEENTLVSIMATEASPYNIAIEPNSGSVFITDRSENAILKLEDAATVRAEQELREGKDQESQAAYTTVQYLNAFEGRSFLGPTAIAFSPSGELFFTDAGAEGDSSFSDPVGAVYRTTMNHEHLVPICTRGLIRPSAIAVAPDNSVYVCEQGTNRVLRFVQRSTFYVGNVFAQLQGGMGPRAIAVSPRDGSVFVAQYDISAVEAPTEEGESEKGNEDAGEGEGGDDGKVQNQSALESAGEGGIITVLGRDGDVRGIVRTMRPCITAIALDASGETLYVMEGDEANGSSKLYKLQVLPLDDQQCGGQAE | not soluble
